In PMC10145791:
pKd: −log10 of the molar value.

Legend:
VEGF-A165 (Homo sapiens) = VEGF-A165 (Homo sapiens) (UniProt P15692); conditions: cited from earlier work
[1] = target: recombinant human neuropilin-1 (human) (UniProt O14786); assay: SPR; SPRi, stage 1: mixtures of NRP-1 (1 ng/mL) with VEGF-A (0.01, 0.10, 1.00, 10.0 ng/mL) dropped onto the immobilised mouse monoclonal anti-NRP-1 antibody (200 ng/mL on cysteamine/gold); read-out is the free NRP-1 that the antibody captures (recovery %); pH 7.4, 10 min

In the case of “neuropilin-1 soluble (from UniProt O14786)”, the pKd (VEGF-A165 (Homo sapiens)) is given as 8.12.

Substance “vascular endothelial growth factor VEGFA (from UniProt P15692 1-395) (ligand)” has a recovery of free NRP-1 (1 ng/mL added) on the antibody with 0.01 ng/mL VEGF-A [1] of 98%, a recovery of free NRP-1 (1 ng/mL added) on the antibody with 0.10 ng/mL VEGF-A [1] of 85% and a recovery of free NRP-1 (1 ng/mL added) on the antibody with 1.00 ng/mL VEGF-A [1] of 36%. It also gave a recovery of free NRP-1 (1 ng/mL added) on the antibody with 10.0 ng/mL VEGF-A [1] of under 1%.
